Results as given in the nanobody polyreactivity screen of Harvey et al. (2022).

Assay: yeast display, Sf9 membrane polyspecificity reagent, FACS + sequencing; frameworks hold sequencing errors
Procedure, shortened: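 Using colony PCR, genes from sorted yeast display clones were amplified, then sequenced on MiSeq at 2 × 250 and filtered by CDR length. The clones had been stained with 10% biotinylated, detergent-solubilized Sf9 membrane reagent for 1 hour at 4 °C and sorted by FACS into low and high (top ~1%) gates on anti-HA and streptavidin fluorescence. Polyreactivity labels come from the gate of origin.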

Sequence	polyreactivity (PSR sort gate)
QVQLVESGGGLVQAGGSLRLSCAASGRIFYYYTMGWYRQAPGKERELVAGISRSGDRTYYADSVKGRFTISRDNAKNTVYLQMNSLKPEDTAVYYCATRWSSARMDYWGLGTQVTVSS	high polyreactivity
QVQLVESGGGLVQAGGSLRLSCAASGRIGKYAMGWYRQAPGKERELVATISSTGTTNYADSVKGRFTISRDNAKNTVYLQMNSLKPEDTAVYYCAGRWEYVGYRRRYYRFDYWGQGTQVTVSS	high polyreactivity
QVQLVESGGGLVQAGGSLRLSCAASGRIIAKYAMGWYRQAPGKERELVAAINWGGGSTYYADSVKGRFTISRDNAKITVYLQMNSLKPEDTAVYYCNRTPRSKGNYWGQGTQVTVSS	high polyreactivity
QVQLVESGGGLVQAGGSLRLSCAASGRIIARYAMGWSRQAPGKERELVAAISRGGGRTYYADSVKGRFTISRDNATNTVYLQMNSLKPEDTAVYYCAADAYSIASVGYDYWGQGTQVTVSS	high polyreactivity
QVQLVESGGGLVQAGGSLRLSCAASGRIIDDNAMGWYRQAPGKERELVASITVSTGSTYYADSVKGRFTISRDNAKNTVYLQMNSLKPEDTAVYYCDAPYITPYGTYVFSSDYWGQGTQVTVSS	low polyreactivity
QVQLVESGGGLVQAGGSLRLSCAASGRIIDRNAMGWYRQAPGKERELVAAISSSGSTNYADSVKGRFTISRDNAKNTVYLQMNSLKPEVTAVYYCAARWRSVLAAGTRPVSFDYWGQGTQVTVSS	low polyreactivity
QVQLVESGGGLVQAGGSLRLSCAASGRIIGGNAMGWYRPAPGKEREFVAAIRASGGSTHYADSVKGRFTISRDNAKNTVYLQMNSLKPEDTAVYYCNTYRARLGTTFIDYDYWGQGTQVTVSS	high polyreactivity
QVQLVESGGGLVQAGGSLRLSCAASGRIIGGYAMGWYRQAPGKERELVAAITFRSGTTYYADSVKGRFTISRDNAKNTVYLQMNSLKPEDTAVYYCAARWGPYAFTYVRTYDYWGQGTQVTVSS	low polyreactivity
QVQLVESGGGLVQAGGSLRLSCAASGRIIGRYAMGWYRPAPGKERELVAAISSSGSTYYADSVKGRFTISRDNAKNTVYLQMNSLKPEDTAVYYSAAYYRGRAYISYGYWGQGTQVTVSS	high polyreactivity
QVQLVESGGGLVQAGGSLRLSCAASGRIIGSYAMGWYRQAPGKERELVAAISRGGITNYADSVKGRFTIARDNAKNTVYLQMNSLKPEDTAVYYCAVGIRYRGRQGYYGYYTYDYWGQGTQVTVSS	high polyreactivity
QVQLVESGGGLVQAGGSLRLSCAASGRIIGTNARGWYRQAPGNERELVASISSRSTRTYYADSVKGRFTISRDNAKNTVYLQMNSLKPEDTAVYYCAARYPYYVHYDYWGQGTQVTVSS	high polyreactivity
QVQLVESGGGLVQAGGSLRLSCAASGRIIIGYVMGWYRQAPGKERELVATISYSGGSTYADSVKGRFTISRDNAKNTVYLQMNSLKPEDTAVYYCAARPYYRYYRYPYGYWGQGTQVTVSS	high polyreactivity
QVQLVESGGGLVQAGGSLRLSCAASGRIIKFYAMGWYRQAPGKERELVARISRSGGRTYYADSVKGRFTISRDNAKITVYLQMNSLKPEDTAVYYCAADTQSVATYDYWGQGTQVTVSS	low polyreactivity
QVQLVESGGGLVQAGGSLRLSCAASGRIINYNARGWYRQAPGKERELVAAISSSGGSTYYADSVKGRFTISRDNAKNTVYLQMNSLKPEDTAVYYCNALGTTEYWSRDDYWGQGTQVTVSS	low polyreactivity
QVQLVESGGGLVQAGGSLRLSCAASGRIIQYNAMGWYRQAPGKERELVAAMSWRSGRTYYADSVKGRFTISRDNAKNTVYLQMNSLKPEDTAVYYCAATSRTSWYGYWGQGTQVTVSS	high polyreactivity
QVQLVESGGGLVQAGGSLRLSCAASGRIIRRYAMGWYRQAPGKERELVAAISRSGGSTYYADSVKGRFTISRDNAKNTVFLQMKRLKPEDTAVYYCNRRYITYNYDYWGQVTQVTVSS	high polyreactivity
QVQLVESGGGLVQAGGSLRLSCAASGRIIRVNAMGWYRQAPGKERELVAAISGRGGSTYYADSVKGRFTISRDNAKITVYLQMNSLKPEDTAVYYCAKKSYSYGYNSYDYWGQGTQVTVSS	high polyreactivity
QVQLVESGGGLVQAGGSLRLSCAASGRIISPYAMGWYRQAPGKERELVAAISWRGSSTYYADSVKGRFTISRDNAKNTVYLQMNSLKPEDTAVYYCAAVYYRGIQSYDYWGQGTQVTVSS	low polyreactivity
QVQLVESGGGLVQAGGSLRLSCAASGRIISRYAMGWYRQAPGKERELVAAISRRGGSTYYADSVKGRFTISRDNAKNTVYLQLNSLKPEDTAVYYCNADTGNRGYDYWGQGTQVTVSS	high polyreactivity
QVQLVESGGGLVQAGGSLRLSCAASGRIISVYAMGWYRQAPGKERELVATITGGNTNYADSVKGRFTISRDNAKNTVYLQMNSLKPEDTAVYYCAKQFLPSGVYYEYDSWGQGTQVTVSS	low polyreactivity
QVQLVESGGGLVQAGGSLRLSCAASGRIITRNAMGWYRPAPGKERELVAAISSGGSTSYADSVKGRFTISRDNAKNTVYLQLNSVKPEDTAVYYCATKWYWWYDGYYYWGQGTQVTVSS	low polyreactivity
QVQLVESGGGLVQAGGSLRLSCAASGRIITTYAMGRYRQAPGKERELVAPITSDGRTYYADSVKVRFTISRDNATHSVYLQMYSMKPEDTAVYYCNAAGRYAFPFGYNYWGQGTQVTVSS	high polyreactivity

Sequence	polyreactivity (PSR sort gate)
QVQLVESGGGLVQAGGSLRLSCAASGRIIWSNAMGWYRQAPGKERELVAGITGSGGNTYYADSVKGRFTISRDNAKNTVYLHMNSLKPEDTAVYYCNARSGSRPSSSYRYDYWGQGTQVTVSS	low polyreactivity
QVQLVESGGGLVQAGGSLRLSCAASGRIIYNAMGWYRQAPGKERELVAAITSNGCSTYYADSVKGLFTISRDTAKNTVYLQMNSLKPEDTAVYYCARDVNSVPSEVKYDYWGQGTQVNVSS	low polyreactivity
QVQLVESGGGLVQAGGSLRLSCAASGRIIYTNAMGWYRQAPGKERELVAAINRSGGITYYADSVKGRFTISRDNAKNTVYLQMNSLKPEDTAVYYCAKDYSWASYNHDYWGQGTQVTVSS	low polyreactivity
QVQLVESGGGLVQAGGSLRLSCAASGRIIYTYAMGWYRQAPGKERELVAAISWSGGSTYYADSVKGRFTISRDNAKNTVYLQMKSLKPEDTAVYFCNAAYYGYENLSKRGYWGQGTQVTVSS	high polyreactivity
QVQLVESGGGLVQAGGSLRLSCAASGRIIYVKAMGWYRQAPGKERELVAAISSRGGTTYYADSVKGRFTISRDNAKNSVYLQMNSLKPEDTAVYYCNAGRVRHGNDYWGQGTQVTVSS	high polyreactivity
QVQLVESGGGLVQAGGSLRLSCAASGRILARYAMGWYRQAPGKERELVAAITSRGGSTSYADSVKGRFTISRDNAKNTVYLQMNSLKPEDTAVYYCAKGERSANGGLFAGRHGYWGQGTQVTVSS	low polyreactivity
QVQLVESGGGLVQAGGSLRLSCAASGRILASYAMGWYRQAPGKERELVAAIRYRGSTSYADSVKGRFTISRDNANNTVYLQMNSLKPEDTAVYYCNAGLEYYYWGYTWEFDYWGQGTQVTVSS	low polyreactivity
QVQLVESGGGLVQAGGSLRLSCAASGRILAWYAMGWYRQAPGKEREFVAGITGSVGSTYYADSVKGRFTISRDKAKNTVYLQMNSLKPEDPAVYYCNKDWDRTSGPKHYYWGQGTQVTVSS	low polyreactivity
QVQLVESGGGLVQAGGSLRLSCAASGRILDRYAMGWYRQAPGKERELVAVITDRGGNTYYADSVKGRFTISRDNAKNTVYLQMNSLKPEDTAVYYCAVYAYWRFRTYYYWGQGTQVTVSS	high polyreactivity
QVQLVESGGGLVQAGGSLRLSCAASGRILDVYVMGWYRQAPGKERELVAAISSGGSTYYADSVKGRFTISRDNAKNTVYLQMNSLKPEDTAVYYCAFYYWGQGTQVTVSS	high polyreactivity
QVQLVESGGGLVQAGGSLRLSCAASGRILFFNAMGWYRQAPGKERELVAAISVSGGSTYYADSVKGRFTISRDNAQNTVYLQMNSLKPEDTAVYYCAKGYDFRRRYDYWGQGTQVTVSS	low polyreactivity
QVQLVESGGGLVQAGGSLRLSCAASGRILFGYAMGWYRQAPGKERELVADITSTGSTNYADSVKGRFTISRDNAKNTVYLQMNSLNPEDTAVYYCNARRESYYQRYRVDYWGQGTQVTVSS	low polyreactivity
QVQLVESGGGLVQAGGSLRLSCAASGRILFRYGMGWYRQAPGKERELVARISWSGGNTHYADSVKGRFTISRDNAKNTVYLQMNSLKPEDTAVYYCNAYYTYWYPRYDYWGQGTQVTVSS	low polyreactivity
QVQLVESGGGLVQAGGSLRLSCAASGRILFSYAMGWYRQAPGKERELVATISSGGRTNYADSVKGRFTISRDNAKNTVYLQMNSLKPEDTAVYYCNTEYLVWYPYDYWGQGTQVTVSS	low polyreactivity
QVQLVESGGGLVQAGGSLRLSCAASGRILGDYAMGWYIQAPGKERELVAAISSGGTTYYADSVKGRFTISRDNAKNTVYLQMNSLKPEDTAVYYCAALTSTLPAYGYWGQGTQVTVSS	low polyreactivity
QVQLVESGGGLVQAGGSLRLSCAASGRILGFNVMGWYRQAPGKERELVAAITTSGGSTYYADSVKGRFTISRDNAKNTVYLQMNSLKPEDTAVYYCAARYRRFRFTHYDYWGQGTQVTVSS	high polyreactivity
QVQLVESGGGLVQAGGSLRLSCAASGRILGRNAMGRYRQAPGKEREFVAGISYSGTSTYYADSVKGRFTISRDNAKNTVYLQMNSLKPEDTAVYYCAARSTWFQIRYGYWGQGTQVTVSS	high polyreactivity
QVQLVESGGGLVQAGGSLRLSCAASGRILGRNAMGWYRQAPGKEREFVAGISYSGTSTYYADSVKGRFTISRDNAKNTVYLQMNSLKPEDTAVYYCNVKNQVYRRYYYWGQGTQVTVSS	high polyreactivity
QVQLVESGGGLVQAGGSLRLSCAASGRILGRYAMGWYRQAPGKEREVVATITSGDDTNYADSVKGRFTISRDHAKNTVYLQMNSLKPEDTAVGFWGQGSQVTVSS	low polyreactivity
QVQLVESGGGLVQAGGSLRLSCAASGRILKRNAMGWYRQAPGKERELVAAISWSTGTTYYADSVKGRFTISRDNAKNTVYLQMNSLKPEDTAVYYCAKQIVSGRRVDRNDYWGQGTQVTVSS	low polyreactivity
QVQLVESGGGLVQAGGSLRLSCAASGRILKSYAMGWYRQAPGKERELVAAITSSGVSTYYADSVKGRFTISRDNAKNTVYLQMNSLKPEDTAVYYCAARNYRYPIMGYWGQGTEVTVSS	high polyreactivity
